Molecular target: ELOBC heterodimer (UniProt Q15370;Q15369)
Test: SEC-MALS

Chain of ELOBC heterodimer (Q15370 whole entry, chain 1 of 2): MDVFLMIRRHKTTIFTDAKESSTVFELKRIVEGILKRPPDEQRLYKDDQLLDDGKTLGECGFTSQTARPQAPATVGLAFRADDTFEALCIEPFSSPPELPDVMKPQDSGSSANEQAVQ
Chain of ELOBC heterodimer (Q15369 whole entry, chain 2 of 2): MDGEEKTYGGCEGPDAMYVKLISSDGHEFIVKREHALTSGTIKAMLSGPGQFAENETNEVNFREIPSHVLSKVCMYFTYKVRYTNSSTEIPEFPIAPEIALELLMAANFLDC

B1: Strep-Vif (HIV-1 Vif, wild type) (natural protein)
chain: not shown
B1: binds.

— PMC3582769 (Molecular cell, 2013)
